Test system: peptide library, one residue held at a place counted from the Y acceptor
Assay: relative phosphorylation of the sub-library (ratio to the mean residue at this position); higher = residue favoured
In short: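 Every value reflects phosphorylation relative to the mean randomized residue. The sum of the 18 randomized residues, or 16 in the Ser/Thr-free library, served to normalize intensities at each position, which were then multiplied by that number. Intensities came from phosphorimaging with ImageQuant of biotinylated Tyr-centred peptides captured on streptavidin membranes after 90 min with purified recombinant kinases and 50 μM ATP plus γ-32P-ATP.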

Sequence of MKK4, construct: aa34-end, human (P45985 34-399, looked up): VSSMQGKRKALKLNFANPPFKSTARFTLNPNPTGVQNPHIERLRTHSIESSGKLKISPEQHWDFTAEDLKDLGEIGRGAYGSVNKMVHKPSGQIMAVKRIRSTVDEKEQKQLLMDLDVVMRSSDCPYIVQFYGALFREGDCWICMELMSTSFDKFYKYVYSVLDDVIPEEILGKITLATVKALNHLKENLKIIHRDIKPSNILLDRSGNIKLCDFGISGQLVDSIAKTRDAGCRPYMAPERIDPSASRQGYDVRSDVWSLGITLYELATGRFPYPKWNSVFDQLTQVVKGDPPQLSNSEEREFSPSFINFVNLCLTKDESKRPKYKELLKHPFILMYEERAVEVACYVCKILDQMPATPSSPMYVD

MKK4, construct: aa34-end, human (from UniProt P45985)
relative phosphorylation
Conditions	at +1	at +2	at +3	at +4	at +5	at -1	at -2	at -3	at -4	at -5
A fixed	1.14	0.979	0.996	1.06	0.902	0.986	1.01	0.916	1.11	1.06
D fixed	1.32	1.29	1.03	1.2	1.02	1.49	1.18	0.991	1.09	0.992
E fixed	1.26	1.05	1.16	1.05	1.18	1.2	1.17	0.898	1.09	1.06
F fixed	0.867	1.1	1.08	1.12	1.13	0.844	1.06	1.05	1.06	1.17
G fixed	1.49	1.25	1.12	1.15	1.18	1.58	1.02	0.961	1.2	1.18
H fixed	0.87	0.959	0.981	1.22	1.04	0.866	0.994	1.01	1	1.11
I fixed	0.748	0.79	0.796	0.795	0.79	0.898	0.72	0.833	0.785	0.884
K fixed	0.786	0.846	0.923	0.837	0.909	0.638	1.09	1.07	0.878	0.915
L fixed	0.892	0.859	0.806	0.855	0.941	1.03	0.974	0.991	0.905	0.905
M fixed	1.05	0.907	0.949	0.904	0.88	1.11	0.922	0.934	0.918	0.873
N fixed	0.957	1.03	0.898	0.844	0.9	0.905	0.983	0.939	0.86	0.984
P fixed	1.11	1.32	1.34	1.37	1.22	1.04	1.05	0.928	1.08	1.09
Q fixed	0.87	0.893	0.854	0.753	0.858	0.885	0.856	1.04	0.977	0.902
R fixed	0.865	0.941	0.977	0.907	1.05	0.771	0.958	1.41	1.02	0.97
V fixed	0.775	0.779	0.826	0.761	0.775	0.694	0.792	0.736	0.771	0.713
W fixed	0.999	1.02	1.27	1.18	1.21	1.06	1.21	1.28	1.24	1.2
pThr fixed	1.17	1.23	1.15	1.21	1.07	1.05	0.96	1.2	1.29	1.18
pTyr fixed	1.25	0.974	1.18	0.991	1.22	2.13	1.28	1.25	1.18	1.18

Reference: the supplement of paper PMC11136658
